This is an account of results in IntAct's records for PubMed 16873060.

To fix the notation:
B1: Protein PML (Homo sapiens), P29590 (parent)
chain: MEPAPARSPRPQQDPARPQEPTMPPPETPSEGRQPSPSPSPTERAPASEEEFQFLRCQQCQAEAKCPKLLPCLHTLCSGCLEASGMQCPICQAPWPLGADTPALDNVFFESLQRRLSVYRQIVDAQAVCTRCKESADFWCFECEQLLCAKCFEAHQWFLKHEARPLAELRNQSVREFLDGTRKTNNIFCSNPNHRTPTLTSIYCRGCSKPLCCSCALLDSSHSELKCDISAEIQQRQEELDAMTQALQEQDSAFGAVHAQMHAAVGQLGRARAETEELIRERVRQVVAHVRAQERELLEAVDARYQRDYEEMASRLGRLDAVLQRIRTGSALVQRMKCYASDQEVLDMHGFLRQALCRLRQEEPQSLQAAVRTDGFDEFKVRLQDLSSCITQGKDAAVSKKASPEAASTPRDPIDVDLPEEAERVKAQVQALGLAEAQPMAVVQSVPGAHPVPVYAFSIKGPSYGEDVSNTTTAQKRKCSQTQCPRKVIKMESEEGKEARLARSSPEQPRPSTSKAVSPPHLDGPPSPRSPVIGSEVFLPNSNHVASGAGEAEERVVVISSSEDSDAENSSSRELDDSSSESSDLQLEGPSTLRVLDENLADPQAEDRPLVFFDLKIDNETQKISQLAAVNRESKFRVVIQPEAFFSIYSKAVSLEVGLQHFLSFLSSMRRPILACYKLWGPGLPNFFRALEDINRLWEFQEAISGFLAALPLIRERVPGASSFKLKNLAQTYLARNMSERSAMAAVLAMRDLCRLLEVSPGPQLAQHVYPFSSLQCFASLQPLVQAAVLPRAEARLLALHNVSFMELLSAHRRDRQGGLKKYSRYLSLQTTTLPPAQPAFNLQALGTYFEGLLEGPALARAEGVSTPLAGRGLAERASQQS

In the experiment the parent is B1. The note with it: with csk21_human CSNK2A1, P68400.
csk21_human CSNK2A1, P68400, sequence (P68400 whole entry, looked up): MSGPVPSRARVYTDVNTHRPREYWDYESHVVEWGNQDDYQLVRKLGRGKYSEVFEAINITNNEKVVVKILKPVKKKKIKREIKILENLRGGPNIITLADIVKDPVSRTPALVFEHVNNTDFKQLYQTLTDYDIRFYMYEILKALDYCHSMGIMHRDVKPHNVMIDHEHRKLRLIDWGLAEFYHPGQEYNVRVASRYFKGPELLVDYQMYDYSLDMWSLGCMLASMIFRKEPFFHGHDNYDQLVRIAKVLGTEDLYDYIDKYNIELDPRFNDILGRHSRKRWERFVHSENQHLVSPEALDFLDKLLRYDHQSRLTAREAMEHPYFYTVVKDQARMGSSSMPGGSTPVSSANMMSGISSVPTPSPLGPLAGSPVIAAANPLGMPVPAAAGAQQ
As for S518A, the “effect of a mutation on the interaction” value is given as “decreasing interaction”.
